For one protein, Km and kcat results are on record in patent US20110289632A1, “METHYLKETONE SYNTHASE, PRODUCTION OF METHYLKETONES IN PLANTS AND BACTERIA” (The Regents of the University of Michigan, priority 2009, published 2011).

Substrate in this data set: CCCCCCCCCCCC(=O)CC(=O)O
Description: Steady-state kinetic decarboxylase assay (3-ketomyristic acid to 2-tridecanone, GC-MS). In kind it is biochemical, Solanum habrochaites f glabratum. The note with it: other: ShMKS1 decarboxylase, substrate 5 μM to 75 μM, pH 7.0, 23° C., 10 min. As for the experimental part: To examine the possible decarboxylase activity of ShMKS1 as well as ShMKS2 in vitro, we tested homogenous recombinant ShMKS1 and partially purified recombinant ShMKS2 proteins (without their transit peptides) for their ability to convert 3-ketomyristic acid into its 2-tridecanone decarboxylated product. […] In steady-state kinetic assays, ShMKS1 was determined to have a KM of 18.4±5.6 μM for 3-ketomyristic acid, with an apparent kcat of 227.9±24.1 min^−1.
His-tagged ShMKS1 and ShMKS2 were affinity-purified on Nickel-agarose chromatography using the protocol described in Fridman et al., (2005) Metabolic, genomic, and biochemical analyses of glandular trichomes from the wild tomato species Lycopersicon hirsutum identify a key enzyme in the biosynthesis of methylketones, Plant Cell 17: 1252-1267. After elution from the Nickel-agarose column, the proteins were analyzed by SDS-PAGE and ShMKS2 dialyzed against 50 mM phosphate buffer pH 6.8, 500 mM NaCl, and 1M (NH4)2SO4, and 2 mM DTT and ShMKS1 dialyzed against 12.5 mM phosphate buffer pH 6.8, 50 mM NaCl, and 2 mM DTT. ShMKS1 purity was estimated at 99%, and ShMKS2 purity was estimated at 6%.
A typical decarboxylase assay consisted of a 500 μL reaction solution containing ShMKS1 or ShMKS2 (2.5 μg), 3-ketomyristic acid (0.1 mM), and 1,3-bis(tris(hydroxymethyl)methylamino) propane—Na^+ (20 mM, pH 7.0). […]

B1: Solanum habrochaites f glabratum methylketone synthase 1 (ShMKS1), recombinant His-tagged, SEQ ID NO: 17 (Solanum habrochaites) (protein)
chain: MEKSMSPFVKKHFVLVHTAFHGAWCWYKIVALMRSSGHNVTALDLGASGINPKQALQIPNFSDYLSPLMEFMASLPANEKIILVGHALGGLAISKAMETFPEKISVAVFLSGLMPGPNIDATTVCTKAGSAVLGQLDNCVTYENGPTNPPTTLIAGPKFLATNVYHLSPIEDLALATALVRPLYLYLAEDISKEVVLSSKRYGSVKRVFIVATENDALKKEFLKLMIEKNPPDEVKEIEGSDHVTMMSKPQQLFTTLLSIANKYK
notes: no cleavable transit peptide, 265-residue protein
As a reminder, the Km is the substrate concentration at which the rate is half of its maximum. As a reminder, the kcat is the maximal rate divided by the concentration of active sites. Take B1: the Km amounted to 18.4 ± 5.6 µM and the kcat was 3.798 ± 0.402 s⁻¹.
